From publication PMC3479641 (Structure (London, England : 1993), 2012)
Values belong to the binder of their own block, whether it stands above or below them.

Target: T1, Cas5d from B. halodurans, His6-tagged, co-expressed with Csd1, Csd2 and pre-crRNA (B. halodurans, UniProt Q9KFY3 1-236)
T1 sequence: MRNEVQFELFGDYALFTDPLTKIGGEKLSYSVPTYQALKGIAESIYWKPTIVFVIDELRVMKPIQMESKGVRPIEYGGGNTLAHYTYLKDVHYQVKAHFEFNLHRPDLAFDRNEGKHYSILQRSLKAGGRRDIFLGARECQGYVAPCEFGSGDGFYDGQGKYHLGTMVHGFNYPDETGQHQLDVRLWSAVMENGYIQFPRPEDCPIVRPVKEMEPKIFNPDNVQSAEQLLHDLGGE
Test: SEC

- stoichiometry N: ~1 copies in the complex (with two copies of Cas5d and six copies of Csd2)
B1: Csd1 from B. halodurans, co-expressed with Cas5d, Csd2 and pre-crRNA (natural protein, UniProt Q9KFY2 1-627, looked up)
chain: MSWLLHLYETYEANLDQVGKTVKKGEDREYTLLPISHTTQNAHIEVTLDEDGDFLRAKALTKESTLIPCTEEAASRSGSKVAPYPLHDKLSYVAGDFVKYGGKIKNQDDAPFDTYIKNLGEWANSPYATEKVKCIYTYLKKGRLIEDLVDAGVLKLDENQQLIEKWEKRYEELLGEKPAIFSSGATDQASAFVRFNVFHPESIDDVWKDKEMFDSFISFYNDKLGEEDICFVTGNRLPSTERHANKIRHAADKAKLISANDNSGFTFRGRFKTSREAVGISYEVSQKAHNALKWLIHRQSKSIDDRVFLVWSNDNSLVPNPDEDAVDIMKHANRELERDPDTGQIFAGEVKKAIGGYRSDLNYQPEVHILVLDSATTGRMAVLYYRSLNKELYLNRLEAWHDSCAWEHRYRRDEKEFISFYGAPATKDIAFAAYGPRASEKVIKDLMERMLPCIVDGRRVPKDIVRSAFQRASNPVSMERWEWEKTLSITCALIRKMHIEQKEEWGVPLDKSSTDRSYLFGRLLAVADVLERGALGKDETRATNAIRYMNSYSKNPGRTWKTIQESLQPYQAKLGTKATYLSKLVDEIGDQFEPGDFNNNPLTEQYLLGFYSQRRELYKKKEEETNQ

- stoichiometry N: ~6 copies in the complex (with two copies of Cas5d and one copy of Csd1)
B2: Csd2 from B. halodurans, Strep-II-tagged, co-expressed with Cas5d, Csd1 and pre-crRNA (natural protein, UniProt Q9KFY1 1-283, looked up)
chain: MTILDHKIDFAVILSVTKANPNGDPLNGNRPRQNYDGHGEISDVAIKRKIRNRLLDMEEPIFVQSDDRKADSFKSLRDRADSNPELAKMLKAKNASVDEFAKIACQEWMDVRSFGQVFAFKGSNLSVGVRGPVSIHTATSIDPIDIVSTQITKSVNSVTGDKRSSDTMGMKHRVDFGVYVFKGSINTQLAEKTGFTNEDAEKIKRALITLFENDSSSARPDGSMEVHKVYWWEHSSKLGQYSSAKVHRSLKIESKTDTPKSFDDYAVELYELDGLGVEVIDGQ
